“And” between values parts separate entries of the source, which are not always exact repeats. Equal values may be shown once.
Tests used:
[1] = biological target: truncated form of the monomeric type IV pilin from P. aeruginosa strain K122-4 [pilA (Δ1-28); ΔK122] (Pseudomonas aeruginosa strain K122-4); experiment: SEC-MALS; silica-based column, 10 nm pore size, 10 mM Tris pH 7.4; 1 mg·mL^-1 ΔK122 before incubation with MPD; monomer to dimer
[2] = biological target: truncated form of the monomeric type IV pilin from P. aeruginosa strain K122-4 [pilA (Δ1-28); ΔK122] (Pseudomonas aeruginosa strain K122-4); experiment: SEC-MALS; silica-based column, 10 nm pore size, 10 mM Tris pH 7.4; 1 mg·mL^-1 ΔK122 incubated with MPD for 72 hours; relative peak areas
[3] = biological target: truncated form of the monomeric type IV pilin from P. aeruginosa strain K122-4 [pilA (Δ1-28); ΔK122] (Pseudomonas aeruginosa strain K122-4); experiment: SEC-MALS; silica-based column, 10 nm pore size, 10 mM Tris pH 7.4; 1 mg·mL^-1 ΔK122 incubated with MPD for 24 hours; Peaks 2-4
[4] = biological target: truncated form of the monomeric type IV pilin from P. aeruginosa strain K122-4 [pilA (Δ1-28); ΔK122] (Pseudomonas aeruginosa strain K122-4); experiment: SEC-MALS; MALS of the SEC-separated Peak 3/4 aliquot of 15 mg·mL^-1 ΔK122 after 24 hours incubation with MPD; signal overload at the detector noted
[5] = biological target: truncated form of the monomeric type IV pilin from P. aeruginosa strain K122-4 [pilA (Δ1-28); ΔK122] (Pseudomonas aeruginosa strain K122-4); experiment: SEC-MALS; silica-based column, 10 nm pore size, 10 mM Tris pH 7.4; 1 mg·mL^-1 ΔK122 incubated with MPD for 3 hours; relative peak areas

Substance: truncated form of the monomeric type IV pilin from P. aeruginosa strain K122-4 [pilA (Δ1-28); ΔK122] (domain or fragment)
- percent of total species in the higher molecular weight peaks (before MPD) [1]: 17.5%
- stoichiometry N [1]: 2
- percent of total protein in the higher molecular weight peaks (72 hours with MPD) [2]: 90%
- stoichiometry N [3]: 14 and 20 and 40
- stoichiometry N [4]: 4040
- percent of total species in the higher molecular weight peaks (3 hours with MPD) [5]: 55.1%

Source: article PMC3704941
